According to publication PMC6155322:
“And” between values parts separate entries of the source, which are not always exact repeats. Equal entries are not always repeated.

What was measured:
[1] = target: pyruvate kinase M2 type (PKM2), human HK-2 cells (human (endogenous in HK-2)) (UniProt P14618); test: cross-linking; glutaraldehyde chemical cross-linking of scramble siRNA, sirt3 siRNA transfected and TGFβ alone treated HK-2 cells; Western blot
[2] = target: pyruvate kinase M2 type (PKM2), mouse kidney (mouse (endogenous in kidney)) (UniProt P52480); test: cross-linking; glutaraldehyde added to clarified kidney lysate (4 mg/mL; sodium phosphate buffer pH 7.3, 0.5% Triton X-100), 37 °C for 10 min, stopped with Tris; 5-20% SDS/PAGE and Western blotting; kidneys of control and diabetic CD-1 and C57Bl6 mice, scramble or sirt3 siRNA injected diabetic mice, DCA treated diabetic mice, KK/Ta-Ins2Akita mice and littermate controls

Chain of pyruvate kinase M2 type (PKM2), mouse kidney, P52480 1-531 (enzyme; other documents disagree on this pair) (P52480 whole entry): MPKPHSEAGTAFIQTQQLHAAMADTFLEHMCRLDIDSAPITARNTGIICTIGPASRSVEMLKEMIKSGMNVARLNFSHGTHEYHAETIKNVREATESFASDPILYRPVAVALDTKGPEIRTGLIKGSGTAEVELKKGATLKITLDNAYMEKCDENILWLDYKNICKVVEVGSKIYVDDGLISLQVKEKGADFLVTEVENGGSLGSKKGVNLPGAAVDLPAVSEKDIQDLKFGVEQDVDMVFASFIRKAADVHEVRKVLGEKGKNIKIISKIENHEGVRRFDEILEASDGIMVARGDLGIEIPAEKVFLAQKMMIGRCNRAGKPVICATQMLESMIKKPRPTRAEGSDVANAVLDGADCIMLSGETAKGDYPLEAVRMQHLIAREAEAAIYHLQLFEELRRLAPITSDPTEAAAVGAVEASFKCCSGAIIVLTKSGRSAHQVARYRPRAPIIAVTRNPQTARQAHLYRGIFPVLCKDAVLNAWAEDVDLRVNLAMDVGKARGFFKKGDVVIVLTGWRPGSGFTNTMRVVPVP
Chain of pyruvate kinase M2 type (PKM2), human HK-2 cells, P14618 1-531 (enzyme; other documents disagree on this pair) (P14618 whole entry): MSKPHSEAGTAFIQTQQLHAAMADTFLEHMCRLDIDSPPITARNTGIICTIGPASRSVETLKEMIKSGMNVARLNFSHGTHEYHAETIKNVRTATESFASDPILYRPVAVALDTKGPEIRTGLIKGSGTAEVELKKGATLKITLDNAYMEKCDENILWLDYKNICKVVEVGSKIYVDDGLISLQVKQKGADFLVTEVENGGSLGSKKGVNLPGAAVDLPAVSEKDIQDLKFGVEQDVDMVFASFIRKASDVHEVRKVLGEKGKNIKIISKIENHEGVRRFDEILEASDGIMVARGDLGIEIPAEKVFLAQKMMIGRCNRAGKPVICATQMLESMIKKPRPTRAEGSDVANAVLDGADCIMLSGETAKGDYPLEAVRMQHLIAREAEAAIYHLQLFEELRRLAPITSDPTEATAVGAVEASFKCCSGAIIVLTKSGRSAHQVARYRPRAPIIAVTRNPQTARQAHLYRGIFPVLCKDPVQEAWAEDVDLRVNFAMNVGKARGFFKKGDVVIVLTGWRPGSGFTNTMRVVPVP

stoichiometry N [1] | stoichiometry N [2] | Substance
2 | – | pyruvate kinase M2 type (PKM2), human HK-2 cells, P14618 1-531 (enzyme; other documents disagree on this pair)
– | 2 and 4 | pyruvate kinase M2 type (PKM2), mouse kidney, P52480 1-531 (enzyme; other documents disagree on this pair)
